The chains are these.
B1: Antibody H (bispecific antibody, human IgG1, kappa)
light: QVQLQESGPGLVKPSETLSLTCTVSGSSLTSYGVHWVRQPPGKCLEGLGVIWPGGSTNYNSALMSRVTISKDNSKSQVSLKMSSLTAADTAVYYCARVTGTWYFDVWGQGTTVTVSSGGGGSGGGGSGGGGSDIQMTQSPSSLSASLGDRVTISCSASQGISNYLNWYQQKPDGTVKLLIYYTSTLHSGVPSRFSGSGSGTDYTLTISSLQPEDIATYYCQQYSKLPWTFGCGTKLEIKGGGGSGGGGSGGGGSDIVMTQSPATLSVSPGERATLSCKASQNVGSNVDWYQQKPGQSPRVLIYKASIRYTGIPARFSGSGSGTEFTLTISILQSEDFAVYFCMQSKSYPITFGQGTKLEIKRTVAAPSVFIFPPSDEQLKSGTASVVCLLNNFYPREAKVQWKVDNALQSGNSQESVTEQDSKDSTYSLSSTLTLSKADYEKHKVYACEVTHQGLSSPVTKSFNRGEC
heavy: not shown
notes: IgG1 subtype; full-length TNFR2 antibody with 4-1BB scFv at the N-terminus of the light chains
B2: Antibody J1 (bispecific antibody, human IgG1, kappa)
light: DIQMTQSPSSLSASLGDRVTISCSASQGISNYLNWYQQKPDGTVKLLIYYTSTLHSGVPSRFSGSGSGTDYTLTISSLQPEDIATYYCQQYSKLPWTFGGGTKLEIKRTVAAPSVFIFPPSDEQLKSGTASVVCLLNNFYPREAKVQWKVDNALQSGNSQESVTEQDSKDSTYSLSSTLTLSKADYEKHKVYACEVTHQGLSSPVTKSFNRGEC
heavy: not shown
notes: IgG1 subtype; full-length 4-1BB antibody with TNFR2 VHH at the C-terminus of the heavy chains
B3: Antibody M1 (bispecific antibody, human IgG1, kappa)
light: B2 light
heavy: not shown
notes: IgG1 subtype; full-length 4-1BB antibody with TNFR2 VHH at the N-terminus of the heavy chains
B4: Antibody E1 (bispecific antibody, human IgG1, kappa)
light: DIVMTQSPATLSVSPGERATLSCKASQNVGSNVDWYQQKPGQSPRVLIYKASIRYTGIPARFSGSGSGTEFTLTISILQSEDFAVYFCMQSKSYPITFGQGTKLEIKRTVAAPSVFIFPPSDEQLKSGTASVVCLLNNFYPREAKVQWKVDNALQSGNSQESVTEQDSKDSTYSLSSTLTLSKADYEKHKVYACEVTHQGLSSPVTKSFNRGEC
heavy: not shown
notes: IgG1 subtype; full-length TNFR2 antibody with 4-1BB scFv at the C-terminus of the heavy chains

T2 sequence (Q07011 24-186 limits assumed): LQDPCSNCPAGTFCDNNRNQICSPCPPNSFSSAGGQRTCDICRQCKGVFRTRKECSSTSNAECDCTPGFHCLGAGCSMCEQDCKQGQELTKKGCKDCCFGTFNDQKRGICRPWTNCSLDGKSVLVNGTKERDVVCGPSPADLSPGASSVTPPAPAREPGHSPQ

The first assay concerns the target T1, Human-TNFR2-His (human, UniProt P20333 23-257).
T1 construct: Bought protein; also called human TNFR2 protein; TNFR2 protein; not shown: His tag
T1 sequence (looked up): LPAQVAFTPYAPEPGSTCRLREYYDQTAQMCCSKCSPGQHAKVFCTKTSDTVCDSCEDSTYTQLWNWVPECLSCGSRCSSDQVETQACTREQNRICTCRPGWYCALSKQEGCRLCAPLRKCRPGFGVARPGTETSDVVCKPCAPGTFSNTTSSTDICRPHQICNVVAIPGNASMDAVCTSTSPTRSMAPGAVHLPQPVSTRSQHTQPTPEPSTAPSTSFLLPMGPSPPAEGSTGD
The experiment in a line: BLI, antibody on AHC sensor, 100 nM TNFR2-His in solution. The protocol: The AHC sensor was soaked in 0.02% PBST (0.02% Tween 20, pH 7.4, 1×PBS) as a buffer for 600 s to remove the sucrose covering the sensor surface. The AHC sensor was equilibrated with 0.02% PBST (0.02% Tween 20, pH 7.4, 1×PBS) as a buffer for 60 s, the antibody in the sample plate was solidified for 300 s, and the secondary equilibration buffer was used for 180 s. 100 nM human-TNFR2-His (manufacturer: SINO, CAT: 10417-H08H, LOT: LC15NO0412) protein was bound to the antibody for 300 s and then dissociated for 600 s. After dissociation, 10 mM glycine (pH 2.0) was used as a regeneration buffer for 30 s. The sensor was regenerated with 10 mM glycine (pH 2.0).
Molecule B1 yielded a Kd of 0.241 nM, a koff of 6.64e-05 s⁻¹ and a kon of 276000 M⁻¹ s⁻¹.

The molecule B2 displayed a Kd of 1.82 nM, a koff of 0.000394 s⁻¹ and a kon of 217000 M⁻¹ s⁻¹.

As to B3, binding was characterised by a dissociation constant (Kd) of 1.28 nM, the koff worked out at 0.000394 s⁻¹ and the kon is 308000 M⁻¹ s⁻¹.

Consider B4, for which the Kd was found to be 0.207 nM, the koff was found to be 8.04e-05 s⁻¹ and the kon worked out at 389000 M⁻¹ s⁻¹.

A further assay addresses T2, Human 4-1BB His (human, UniProt Q07011 24-186).
T2 construct: Bought protein; lots 198-2146F1-W6 and 2407c-214FF1-YC; also called human 4-1BB protein; 4-1BB protein; not shown: His tag
The assay can be described thus: BLI, antibody on AHC sensor, 100 nM 4-1BB His in solution. An excerpt:
The variable region of the antibody sequence of the positive control consists of SEQ ID NO: 15 and SEQ ID NO: 19, with the addition of the constant region of human IgG1 (SEQ ID NO: 46 and SEQ ID NO: 47). The AHC sensor was soaked in 0.02% PBST (0.02% Tween 20, pH 7.4, 1× PBS) as a buffer for 600 s to remove the sucrose covering the sensor surface. The AHC sensor was equilibrated with 0.02% PBST (0.02% Tween 20, pH 7.4, 1× PBS) as a buffer for 60 s, the antibody in the sample plate was solidified for 300 s, and the secondary equilibration buffer was used for 180 s. 100 nM human 4-1BB His (manufacturer: Acro, CAT: 41B-H5258, LOT: 198-2146F1-W6) protein was bound to the antibody for 300 s and then dissociated for 600 s. After dissociation, 10 mM glycine (pH 2.0) was used as a regeneration buffer for 30 s. The sensor was regenerated with 10 mM glycine (pH 2.0).
Molecule B1 registered a Kd of 6.42 nM, a koff of 0.00435 s⁻¹ and a kon of 677000 M⁻¹ s⁻¹.

The molecule B2 had a Kd of 12.2 nM, a koff of 0.00616 s⁻¹ and a kon of 503000 M⁻¹ s⁻¹.

B3 displayed a Kd of 17.5 nM, a koff of 0.00647 s⁻¹ and a kon of 369000 M⁻¹ s⁻¹.

The molecule B4 came in with a Kd of 18.1 nM, a koff of 0.00546 s⁻¹ and a kon of 302000 M⁻¹ s⁻¹.

The target of a further assay is T3, Human 4-1BB Fc (human, UniProt Q07011 24-186).
T3 construct: same catalogue and lot number as Human 4-1BB His; not shown: Fc
T3 sequence (Q07011 24-186 limits assumed): as the sequence (Q07011 24-186 limits assumed) above
The experiment in a line: bridging ELISA: Human 4-1BB Fc coated (0.3 ug/mL), antibody titrated, then Human-TNFR2-His (0.3 ug/mL), HRP anti-His detection (Example 4).
For B1, the “EC50 (read off the curve)” value was about 0.3 nM.

For the molecule B2, the “EC50 (read off the curve)” value was about 0.2 nM.

For B3, the concentration for a half-maximal effect (EC50 (read off the curve)) was about 0.2 nM.

Regarding B4, the “EC50 (read off the curve)” value was about 0.2 nM.

The values are drawn from patent publication US20260049151A1 (SHENGHE CHINA BIOPHARMACEUTICAL, published 2026).
